Data reported in patent US6124262A, “Compositions and methods for reducing adhesiveness of defective red blood cells” (The Regents of the University of California, dated 2000).
Where no end group is shown, it is not given here. [ ]: non-standard residue; d: D form.

Legend:
[1] = system: P. falciparum-infected erythrocytes (rosetting); format: cell-based; settings: FIG. 3B; read-out: IC50, competitive inhibition of rosetting
Description: (§1) The Gambian FCR-3 strain of P. falciparum was cultured according to the literature method [Trager, W. & J. Jensen (1976) Science 193:673-675]. Cultures were synchronized at the ring stage by sorbitol lysis of mature forms [Lambros, C. & J. P. Vanderberg (1980) J. Parasitology 65:418-20]. Knobless parasite cultures were produced from a knobby FCR-3 line and maintained as described previously [Crandall, I. E. et al. (1994) Cell Adhesion & Communication 2(6):503-510].
(§2) Cytoadherence assays were carried out as described previously [Udeinya et al. (1981), supra; Crandall et al. (1991), supra] except that BTS buffer (50 mM Bis Tris, 130 mM NaCl, pH 6.6) was substituted for BTC buffer (i.e. the Ca^+ was omitted from the cytoadherence assay buffer). Rosetting was measured as described previously [Crandall et al. (1994), supra].
(§3) In order to determine if the action of the antibody was due to the non-competitive removal of the sequence FSFCETNGLEYI [SEQ ID NO:44], the antibody's epitope, or whether it was the result of steric hindrance or induced conformational change of the protein associated with the antibody's binding, the effect of adding increased amounts of the peptide FSFCETNGLE [SEQ ID NO:26] to rosetting and cytoadherence assays was determined. […] FIG. 3A illustrates the results of adding the indicated peptides to the incubation medium of a cytoadherence assay. […]

[2] = system: P. falciparum-infected erythrocytes; format: cell-based; settings: FIG. 3A; read-out: IC50, competitive inhibition of cytoadherence
Description: as §1, §2, §3

CD36 = CD36 (Homo sapiens (Human), UniProt P16671); assay: cell-based or functional assay
human band 3 protein = human band 3 protein (human, UniProt P02730); assay: cell-based or functional assay

## FSFCETNGLE [Peptide 2f, FSFCETNGLE]
[1]
  IC50: 3 µM
[2]
  IC50: 4 µM

B1: peptide 3d, GHPLQKTY (peptide)
peptide: GHPLQKTY
CD36
  50% inhibition of sickle cell binding to HUVEC: 4 µg/mL

B2: D-isomer of peptide 3d (peptide)
peptide: G[dH][dP][dL][dQ][dK][dT][dY]
CD36
  50% inhibition of sickle cell binding to HUVEC: 4 µg/mL

B3: peptide 2f, FSFCETNGLE (peptide)
peptide: FSFCETNGLE
Human band 3 protein
  50% inhibition of sickle cell binding to HUVEC: 4 µg/mL
  IC50 of inhibition of cytoadherence of P. falciparum-infected erythrocytes: 4 µM
  IC50 of inhibition of rosetting of P. falciparum-infected erythrocytes: 3 µM
